What was measured:
[1] = target: AIDA-SpyCatcher fusion protein displayed on the OMV surface (Streptococcus pyogenes | not stated); test: SEC; 10 µM SpT-CF incubated with OMV isolates for 24 h at 4 °C; SEC-HPLC on Sepharose CL-4B in PBS pH 7.4; AUC of the OMV peak of the fluorescent chromatogram normalized to the AUC of the corresponding UV peak
[2] = target: HbpD-SpyCatcher fusion protein displayed on the OMV surface (not stated | Streptococcus pyogenes); test: as above
[3] = target: AIDA-SpyCatcher fusion protein displayed on the OMV surface (Streptococcus pyogenes | not stated); test: SDS-PAGE with in-gel fluorescence of the covalent adduct; 10 µM SpT-CF incubated with OMV isolates for 24 h at 4 °C; fluorescence of the specific band normalized to the OmpF band after PageBlue staining; 3 separate OMV isolates for each plasmid
[4] = target: HbpD-SpyCatcher fusion protein displayed on the OMV surface (not stated | Streptococcus pyogenes); test: as above

Which results are given for “carboxyfluorescein coupled SpyTag (peptide)”?
fluorescence AUC of the OMV peak normalized to the UV AUC [1]: 6.86 AU; fluorescence AUC of the OMV peak normalized to the UV AUC [2]: 2.25 AU; SpT-CF band fluorescence normalized to the OmpF band [3]: 6.55 AU; SpT-CF band fluorescence normalized to the OmpF band [4]: 4.15 AU
